# Laboratory results as given in the supplement of paper PMC12042874.
# ± gives the uncertainty stated by the source.
# Experiment: amyloid nucleation score (Sup35N fusion, yeast selection) (log enrichment); library NNK1; higher = more nucleation; inactive = no reads after selection
# How it was run: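 Peptides of 20 random codons fused to Sup35N were expressed in psi-negative yeast, induced 24 hours with 100 μM copper sulfate, then grown 7 days at 30°C on medium lacking adenine and uracil. Input and output plasmid inserts were Illumina-sequenced. Nucleation score is the DiMSum log enrichment of output over input reads, centred on the mode score of non-aggregating sequences, excluding sequences with under 100 input reads. Random libraries had three technical output replicates.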
row,Substance,amyloid nucleation score
1,YMKLKRVDMSVYSCCLVFGH,-0.648 ± 0.73
2,YMKWTNDVNDTLDILFCVYL,3.84 ± 0.069
3,YMLSDLITCLCVAEELFRGQ,4.81 ± 0.098
4,YMLSLSPPRRC,0.25 ± 0.33
5,YMVFVVVSI,0.946 ± 0.24
6,YMVSCYLAGNQDSVVCSVKW,2.23 ± 0.18
7,YNPIVWSTAY,inactive
8,YNREWYYIWLLREFDVRKHS,1.43 ± 0.53
9,YNSFKAVNPLKVGLVYMLKL,0.021 ± 0.55
10,YNSRRCNIHFNFIGKC,6.783 ± 0.054
11,YNSWFI,0.586 ± 0.55
12,YNVMYTFLHFAIGTAISRTW,-0.798 ± 0.76
13,YPCHSREMHYCREWVRDLST,-0.396 ± 0.62
14,YPGFVCKVWIVVARKSFELE,inactive
15,YPTYCLGCMS,0.672 ± 0.51
16,YPYTSLRQGRDTRNREGLQC,0.301 ± 0.61
17,YQCYSFRVNFGGCWLAQHLL,4.64 ± 0.13
18,YQVCTFSNNGIWLWRLSIPH,1.81 ± 0.23
19,YREDKHCIHCWGVMGV,-2.16 ± 2.4
20,YRESSATGMMSGSDLKRWQV,-2 ± 2.4
21,YRGVQCFKATKNARVLLWVV,-0.051 ± 0.52
22,YRGWVVQGIHLKFSCFAELR,0.333 ± 0.97
23,YRLCSMSMRCGLRSIFSNRL,0.606 ± 0.57
24,YRLRYI,inactive
25,YRMIIVGLCFMVVHMAASRK,0.514 ± 0.69
26,YRMVCVLITVPANQIYCLLH,0.541 ± 0.69

row,Substance,amyloid nucleation score
1,YSAVWRSMYTQNLWVPTGMG,1.83 ± 0.27
2,YSDCDGTMCYVDAYMCGYMA,3.46 ± 0.077
3,YSHYNTIGLYILSKVSSMAV,inactive
4,YSILMVNWMFWCFVEAWNHD,0.623 ± 0.56
5,YSLIVTRCC,-0.468 ± 0.41
6,YSLLTVASREVSKQSGTSRI,0.42 ± 1.2
7,YSMLQFWDRAAMSV,-0.294 ± 1.5
8,YSRNNIIHFRFISALLPEEV,0.683 ± 0.37
9,YSSLRGWLC,inactive
10,YSSNWIMLIIRVMIHFFSSR,3.46 ± 0.17
11,YSSSPVFGCEAPGDYQLGY,1.24 ± 0.76
12,YSTYLSS,1.4 ± 0.66
13,YSYNRSIASFFYFMSYCVSL,inactive
14,YTLILREIYWCC,-0.128 ± 0.54
15,YTQFYVLESIYRTTLCP,0.554 ± 0.58
16,YTSKSMRGFSKKSLFDMTFK,0.126 ± 0.79
17,YTTDREFLPICKDAATRDFL,-0.057 ± 1.1
18,YTTIYLVIFSFC,6.48 ± 0.068
19,YTTVLAYLLTLDVGSSALSG,-0.465 ± 1.2
20,YTYMHRNDEFALM,inactive
21,YVDIPVVVS,0.235 ± 0.32
22,YVFSG,-0.202 ± 0.32
23,YVLRSAMACLCDCVCESCGG,2.71 ± 0.12
24,YVLSFYHQVGPALGFIRQWI,-1.04 ± 0.69
25,YVPALYRVSGLCYLLTNHEF,0.557 ± 0.18
26,YVPMRETGCRDSTYIEWFWY,-0.057 ± 0.24

row,Substance,amyloid nucleation score
1,YVQFCGQHARR,-0.516 ± 1.7
2,YVSADLGMYTVDGAEFYCEN,0.106 ± 0.43
3,YVVGARNEVRGYRVGTRLIR,0.155 ± 1.5
4,YVVWQFNWLDTTHHFFELSG,-0.022 ± 0.69
5,YVWIRIVVVLVRRMCNTDTQ,inactive
6,YVWMSDPSVTNHRGRLVDMG,5.02 ± 0.098
7,YVYNFMYTVNCMVEPFWLEC,7.12 ± 0.048
8,YWDGYEVDVNGVREYEGNAV,0.305 ± 0.19
9,YWGARNCLLYWWYGLTTEGS,0.028 ± 0.44
10,YWLLT,-0.501 ± 0.55
11,YWPGFSNRFR,0.397 ± 0.75
12,YWPPGFAVS,1.01 ± 0.81
13,YWRKLQYRMAGN,0.265 ± 0.64
14,YWTDGLFGDAT,0.141 ± 0.31
15,YWYNNAWASLWFQAWVDWYI,0.446 ± 0.33
16,YYASVTYFILYSHRIELVVR,1 ± 0.65
17,YYCRNPRSMG,-0.134 ± 1.1
18,YYEAGQEPVNGMCSP,0.07 ± 1.1
19,YYFEVAVGQMSFTANVLVLS,2.34 ± 0.28
20,YYMRGTKRRIVRVYFWMLRC,1.59 ± 0.4
21,YYNFCMDRRLLDNGTNGSKS,-0.016 ± 1.7
22,YYNRFILRSWEGSSMGLWSC,-0.582 ± 0.36
23,YYPVKSFELGWSHLGGKHWA,1.34 ± 0.7
24,YYWRPIQVVCLLASCKRTWR,7.749 ± 0.064
